Reference: PMC8635976, “Ca^2+/CaM binding to CaMKI promotes IMA-3 importin binding and nuclear translocation in sensory neurons to control behavioral adaptation” (eLife, 2021)
Where a chain is given by its changes, count along the chain named. Names and notes keep the numbering of the source.

T1: IMA-3-His6 (IMA-3 importin-α) (C. elegans, UniProt Q19969 1-514, labeled using the RED-tris-NTA His tag protein labeling kit)
T1 construct: IMA-3, importin-α of C. elegans; also called HisTag::IMA-3; source: E. coli BL21 (DE3), purified (Ni-NTA, desalting spin column)
T1 sequence (looked up): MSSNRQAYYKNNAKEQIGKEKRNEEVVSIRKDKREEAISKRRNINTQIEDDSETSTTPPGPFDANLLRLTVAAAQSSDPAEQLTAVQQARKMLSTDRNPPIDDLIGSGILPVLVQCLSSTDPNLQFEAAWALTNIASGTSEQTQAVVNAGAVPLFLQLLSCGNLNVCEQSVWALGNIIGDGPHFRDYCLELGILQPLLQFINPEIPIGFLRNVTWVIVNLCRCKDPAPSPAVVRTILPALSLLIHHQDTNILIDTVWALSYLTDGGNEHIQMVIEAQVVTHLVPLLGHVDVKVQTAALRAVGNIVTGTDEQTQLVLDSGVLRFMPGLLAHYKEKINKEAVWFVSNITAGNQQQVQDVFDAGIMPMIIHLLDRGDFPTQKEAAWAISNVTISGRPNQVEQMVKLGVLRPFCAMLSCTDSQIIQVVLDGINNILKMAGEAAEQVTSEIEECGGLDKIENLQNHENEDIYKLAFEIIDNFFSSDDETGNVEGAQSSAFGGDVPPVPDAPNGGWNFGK

B1: CMK-1(wt), calcium/calmodulin-dependent protein kinase-1 (enzyme, C. elegans, UniProt Q9TXJ0 1-348, looked up)
chain: MPLFKRRDGSGPAPNATIREKYDFRDVLGTGAFSKVFLAESKSDAGQMYAVKCIDKKALKGKEESLENEIKVLRKLRHNNIVQLFDTYDEKQFVYLVMELVTGGELFDRIVAKGSYTEQDASNLIRQVLEAVGFMHDNGVVHRDLKPENLLYYNQDEDSKIMISDFGLSKTEDSGVMATACGTPGYVAPEVLQQKPYGKAVDVWSIGVIAYILLCGYPPFYDESDANLFAQIIKGEYEFDAPYWDQISDSAKDFITHLMCCDPEARFTCQDALSHPWISGNTAYTHDIHGTVAVHLKKSLAKRNWKKAYNAAAAIRQLQMLRLSSNSNRLQKQASQQQPEPPTPAFHA
notes: CMK-1 of C. elegans, ortholog of mammalian CaMKI/IV; cmk-1 cds inserted in pDK2409 (plasmid dg922 [cmk-1(wt)::GST-TEV]); TEV cleavage removes the GST tag to recover untagged CMK-1; also called CaMKI; source: E. coli BL21 (DE3), purified (Glutathione beads, eluted by TEV cleavage)
B2: CMK-1(K71A/R74Q/R77S) (enzyme, C. elegans, UniProt Q9TXJ0 1-348, looked up)
chain: B1 chain with K71A, R74Q, R77S
notes: CMK-1 of C. elegans with three point mutations in the NLS 71-78; plasmid dg929 [cmk-1(K71A/R74Q/R77S)::GST-TEV] made by site-directed mutagenesis from dg922; TEV cleavage removes the GST tag; also called NLS71-78 mutant CMK-1; CMK-1 (K71A/R74Q/R77S) triple mutant; source: E. coli BL21 (DE3), purified (Glutathione beads, eluted by TEV cleavage)

Key:
Details in all cases: both partners purified
[1] = biological target: T1, IMA-3-His6 (IMA-3 importin-α); assay: MST; Monolith NT.115; RED-tris-NTA labeled IMA-3-His6 at 100 nM, serial dilution of unlabeled CMK-1 in 1x PBS with 0.05% Tween 20; 40% laser power; with 2 mM Ca2+, no CaM
[2] = biological target: T1, IMA-3-His6 (IMA-3 importin-α); assay: MST; Monolith NT.115; RED-tris-NTA labeled IMA-3-His6 at 100 nM, serial dilution of unlabeled CMK-1 in 1x PBS with 0.05% Tween 20; 40% laser power; no Ca2+, no CaM; triplicates
[3] = biological target: T1, IMA-3-His6 (IMA-3 importin-α); assay: MST; Monolith NT.115; RED-tris-NTA labeled IMA-3-His6 at 100 nM, serial dilution of unlabeled CMK-1 in 1x PBS with 0.05% Tween 20; 40% laser power; with 2 mM CaCl2 and 8 µM CaM; triplicates

Row | Binder | Kd [1] | Kd [2] | Kd [3]
1 | B1 | 1.14 µM | 1.54 µM | 0.45 µM
2 | B2 |  | 1.22 µM | 1 µM
